# Data as given in patent US7026125, “Heterodimers of retinoid X receptors (RXRS) and other steroid hormone receptors” (Ligand Pharmaceuticals).
# T1: TRβ (UniProt P10828 P10828:1-461)
# T1 sequence: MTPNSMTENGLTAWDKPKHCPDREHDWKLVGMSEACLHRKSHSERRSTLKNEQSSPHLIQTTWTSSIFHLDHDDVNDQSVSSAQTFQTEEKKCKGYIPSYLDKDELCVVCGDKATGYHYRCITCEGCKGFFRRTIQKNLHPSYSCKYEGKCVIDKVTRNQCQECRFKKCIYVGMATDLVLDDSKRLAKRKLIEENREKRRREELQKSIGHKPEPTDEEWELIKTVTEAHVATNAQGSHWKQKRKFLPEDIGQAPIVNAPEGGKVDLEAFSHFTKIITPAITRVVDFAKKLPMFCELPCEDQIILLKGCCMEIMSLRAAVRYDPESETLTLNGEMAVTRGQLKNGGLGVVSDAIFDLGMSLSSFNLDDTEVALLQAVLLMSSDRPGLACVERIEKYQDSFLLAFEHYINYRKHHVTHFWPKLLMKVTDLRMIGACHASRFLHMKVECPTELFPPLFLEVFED
# T2: TRαm3 (UniProt P10827-2 P10827-2:1-167, C-terminal deletion of 243 aa)
# T2 sequence: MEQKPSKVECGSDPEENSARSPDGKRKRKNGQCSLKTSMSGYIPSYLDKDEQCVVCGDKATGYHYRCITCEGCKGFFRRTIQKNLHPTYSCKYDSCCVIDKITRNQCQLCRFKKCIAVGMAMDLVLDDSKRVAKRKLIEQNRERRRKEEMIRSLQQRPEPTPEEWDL
# B1: palindromic TRE (dsDNA)
# DNA 1: GATCTCAGGTCATGACCTGAGATC
# DNA 2: GATCTCAGGTCATGACCTGAGATC
# Legend:
# RARα/RXRα heterodimer = RARα/RXRα heterodimer (Homo sapiens, UniProt P10276;P19793 P10276:1-462,P19793:1-462); experiment: EMSA; details: label: 32P
# Description: (§1) (a) In vitro synthesized TRα, TRβ, RARα, RARβ, RARγ and TRα2 receptor proteins were preincubated either with (+) or without (−) equal amount of in vitro synthesized RXRα protein at room temperature for 10 minutes. Following this preincubation, the reaction mixtures were incubated with ^32p-labelled palindromic TRE (for 1 sequence see FIG. 2a) and analyzed by gel retardation assay as described in Experimental Procedures. […] As a control, equal amounts of TRα and RARα proteins were also mixed and incubated with labelled TRE.
# (§2) In vitro translated receptor protein (1 to 5 μl depending on the translation efficiency) was incubated with the ^32P-labeled oligonucleotides in a 20-μl reaction mixture containing 10 mM hepes buffer, pH 7.9, 50 mM KCl, 1 mM DTT, 2.5 mM MgCl, 10% glycerol, and 1 μg of poly(dI-dC) at 25° C. for 20 minutes. In general, relative low receptor concentration was used to obtain the clear effect of heterodimer formation. The reaction mixture was then loaded on a 5% nondenaturing ployacrylamide gel containing 0.5×TBE (1×TBE=0.089 M Tris-borate, 0.089 M boric acid, and 0.002 M EDTA). To analyze the effect of RXRα or the nuclear proteins on receptor DNA binding activity, RXRα or the cell extracts were preincubated with receptor protein at room temperature for 10 minutes before performing the DNA binding assay. When antibody was used, 1 μl of the antiserum was incubated with the specific translation products at room temperature for 45 minutes before performing the experiments described above.
# RARβ/RXRα heterodimer = RARβ/RXRα heterodimer (UniProt P10826-2;P19793 P10826-2:1-448,P19793:1-462); experiment: EMSA; details: label: 32P
# Description: as §1, §2
# TRβ = target: T1, TRβ; experiment: EMSA; details: label: 32P
# Description: as §1, §2
# RARγ/RXRα heterodimer = RARγ/RXRα heterodimer (UniProt P13631;P19793 P13631:1-454,P19793:1-462); experiment: EMSA; details: label: 32P
# Description: as §1, §2
# TRαm3 = target: T2, TRαm3; experiment: EMSA; several complexes; details: label: 32P
# Description: as §2
# RARγ + RXRαm5 = RARγ + RXRαm5 (UniProt P13631;P19793 P13631:1-454,P19793:198-462, RXRα N-terminal deletion of 198 aa including DNA binding domain); experiment: EMSA; details: label: 32P
# Description: as §2
# TRα/RXRαm3 = TRα/RXRαm3 (UniProt P10827-2;P19793 P10827-2:1-410,P19793:28-462, RXRα N-terminal deletion of 28 aa); experiment: EMSA; details: label: 32P
# Description: as §2
# RARγ/RXRαm3 = RARγ/RXRαm3 (UniProt P13631;P19793 P13631:1-454,P19793:28-462, RXRα N-terminal deletion of 28 aa); experiment: EMSA; details: label: 32P
# Description: as §2
# [1] = target: Flag-RARγ/RXRα heterodimer (UniProt P13631;P19793 P13631:1-454,P19793:1-462); experiment: EMSA; inhibited by anti-Flag; details: tags: N-terminal Flag on RARγ; label: 32P
# Description: as §2
# [2] = target: Flag-RXRα/TRα heterodimer (UniProt P19793;P10827-2 P19793:1-462,P10827-2:1-410); experiment: EMSA; strongly reduced by anti-Flag; details: tags: N-terminal Flag on RXRα; label: 32P
# Description: As a control, receptor mixtures were also incubated with preimmune serum (NI).
# as §2
# TRαm1/RXRα = TRαm1/RXRα (UniProt P10827-2;P19793 P10827-2:1-402,P19793:1-462, TRα C-terminal deletion of 8 aa); experiment: EMSA; interaction unaffected; details: label: 32P
# Description: as §2
# TRα/RXRα heterodimer = TRα/RXRα heterodimer (UniProt P10827-2;P19793 P10827-2:1-410,P19793:1-462); experiment: EMSA; at least an order of magnitude more effective than either alone; T3 or RA no clear effect; details: label: 32P
# Description: as §1
# as §2, with “When antibody was used, 1 μl of the antiserum was incubated with the specific translation products at room temperature for 45 minutes before performing the experiments described above.” left out
# TRα/RXRαm4 = TRα/RXRαm4 (UniProt P10827-2;P19793 P10827-2:1-410,P19793:61-462, RXRα N-terminal deletion of 61 aa); experiment: EMSA; faster migrating than RXRαm3 complex; details: label: 32P
# Description: as §2, with “In” for “In vitro translated receptor protein (1 to 5 μl depending on the translation efficiency) was incubated with the ^32P-labeled oligonucleotides in a 20-μl reaction mixture containing 10 mM hepes buffer, pH 7.9, 50 mM KCl, 1 mM DTT, 2.5 mM MgCl, 10% glycerol, and 1 μg of poly(dI-dC) at 25° C. for 20 minutes. In”
# Sequence of RARγ + RXRαm5 (P13631 whole entry, stated change not applied, chain 1 of 2, the tested form may be a part): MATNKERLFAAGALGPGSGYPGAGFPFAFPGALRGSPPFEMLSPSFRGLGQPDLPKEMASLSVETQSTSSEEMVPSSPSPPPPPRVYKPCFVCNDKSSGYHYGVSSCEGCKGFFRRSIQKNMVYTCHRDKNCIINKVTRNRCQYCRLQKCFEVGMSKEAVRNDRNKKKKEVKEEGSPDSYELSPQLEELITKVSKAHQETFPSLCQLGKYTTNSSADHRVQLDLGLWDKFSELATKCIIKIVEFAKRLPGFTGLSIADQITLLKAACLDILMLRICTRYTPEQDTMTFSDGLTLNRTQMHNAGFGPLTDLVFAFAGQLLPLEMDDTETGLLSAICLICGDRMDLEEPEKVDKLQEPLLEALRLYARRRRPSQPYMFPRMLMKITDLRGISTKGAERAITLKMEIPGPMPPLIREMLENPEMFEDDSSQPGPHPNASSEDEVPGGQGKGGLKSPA
# Sequence of RARγ + RXRαm5 (P19793 199-462, stated change not applied, chain 2 of 2): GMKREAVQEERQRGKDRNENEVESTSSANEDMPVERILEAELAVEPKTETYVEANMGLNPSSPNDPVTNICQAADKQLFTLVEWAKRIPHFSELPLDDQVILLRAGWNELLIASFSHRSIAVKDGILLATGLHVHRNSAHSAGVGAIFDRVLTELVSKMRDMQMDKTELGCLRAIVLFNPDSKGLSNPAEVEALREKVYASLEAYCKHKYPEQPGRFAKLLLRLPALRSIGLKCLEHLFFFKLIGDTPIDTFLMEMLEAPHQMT
# Sequence of RARγ/RXRα heterodimer (P13631 whole entry, chain 1 of 2): as the sequence (P13631 whole entry, stated change not applied, chain 1 of 2, the tested form may be a part) above
# Sequence of RARγ/RXRα heterodimer (P19793 whole entry, chain 2 of 2): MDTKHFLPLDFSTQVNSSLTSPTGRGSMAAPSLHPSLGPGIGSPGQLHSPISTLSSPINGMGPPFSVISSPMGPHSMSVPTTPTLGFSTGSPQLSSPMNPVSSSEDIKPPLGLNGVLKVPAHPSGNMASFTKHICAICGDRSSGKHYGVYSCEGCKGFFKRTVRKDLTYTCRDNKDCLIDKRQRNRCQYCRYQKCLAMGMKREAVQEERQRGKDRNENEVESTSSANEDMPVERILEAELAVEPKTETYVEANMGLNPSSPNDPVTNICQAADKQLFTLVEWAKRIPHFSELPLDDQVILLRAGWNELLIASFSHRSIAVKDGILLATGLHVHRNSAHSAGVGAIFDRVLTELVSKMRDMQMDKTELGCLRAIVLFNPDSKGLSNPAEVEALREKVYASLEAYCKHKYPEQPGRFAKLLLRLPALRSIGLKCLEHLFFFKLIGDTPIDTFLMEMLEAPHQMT
# Sequence of RARγ/RXRαm3 (P13631 whole entry, stated change not applied, chain 1 of 2): as the sequence (P13631 whole entry, stated change not applied, chain 1 of 2, the tested form may be a part) above
# Sequence of RARγ/RXRαm3 (P19793 29-462, stated change not applied, chain 2 of 2): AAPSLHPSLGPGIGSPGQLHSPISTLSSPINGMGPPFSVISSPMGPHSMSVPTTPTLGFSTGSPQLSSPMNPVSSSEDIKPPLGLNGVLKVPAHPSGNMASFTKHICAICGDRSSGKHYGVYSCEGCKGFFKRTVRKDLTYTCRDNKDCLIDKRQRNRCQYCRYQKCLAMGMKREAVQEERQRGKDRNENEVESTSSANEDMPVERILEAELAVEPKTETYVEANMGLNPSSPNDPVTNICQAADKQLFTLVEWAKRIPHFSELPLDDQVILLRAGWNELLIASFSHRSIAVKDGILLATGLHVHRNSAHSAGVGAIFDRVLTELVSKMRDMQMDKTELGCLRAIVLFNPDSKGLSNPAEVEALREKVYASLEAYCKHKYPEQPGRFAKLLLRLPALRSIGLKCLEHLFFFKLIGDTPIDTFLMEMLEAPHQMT
# Sequence of Flag-RARγ/RXRα heterodimer (P13631 whole entry, chain 1 of 2): as the sequence (P13631 whole entry, stated change not applied, chain 1 of 2, the tested form may be a part) above
# Sequence of Flag-RARγ/RXRα heterodimer (P19793 whole entry, chain 2 of 2): as the sequence (P19793 whole entry, chain 2 of 2) above
# Sequence of RARα/RXRα heterodimer (P10276 whole entry, chain 1 of 2): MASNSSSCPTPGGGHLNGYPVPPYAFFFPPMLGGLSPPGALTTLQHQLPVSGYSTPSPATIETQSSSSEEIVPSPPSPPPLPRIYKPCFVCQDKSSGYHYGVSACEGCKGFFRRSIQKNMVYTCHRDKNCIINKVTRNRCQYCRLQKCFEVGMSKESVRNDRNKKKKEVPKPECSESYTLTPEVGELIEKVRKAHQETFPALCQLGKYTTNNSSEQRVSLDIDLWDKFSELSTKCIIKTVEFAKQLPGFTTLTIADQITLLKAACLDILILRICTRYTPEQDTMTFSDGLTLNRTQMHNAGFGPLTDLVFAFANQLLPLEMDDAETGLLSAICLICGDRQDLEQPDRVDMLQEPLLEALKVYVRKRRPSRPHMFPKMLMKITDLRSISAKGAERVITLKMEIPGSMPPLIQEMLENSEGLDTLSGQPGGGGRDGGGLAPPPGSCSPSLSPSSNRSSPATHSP
# Sequence of RARα/RXRα heterodimer (P19793 whole entry, chain 2 of 2): as the sequence (P19793 whole entry, chain 2 of 2) above
# Sequence of TRα/RXRαm3 (P19793 29-462, stated change not applied, one chain of several): as the sequence (P19793 29-462, stated change not applied, chain 2 of 2) above
# Sequence of TRα/RXRα heterodimer (P19793 whole entry, one chain of several): as the sequence (P19793 whole entry, chain 2 of 2) above
# Sequence of Flag-RXRα/TRα heterodimer (P19793 whole entry, one chain of several): as the sequence (P19793 whole entry, chain 2 of 2) above
# Sequence of TRαm1/RXRα (P19793 whole entry, stated change not applied, one chain of several): as the sequence (P19793 whole entry, chain 2 of 2) above
# Sequence of TRα/RXRαm4 (P19793 62-462, stated change not applied, one chain of several): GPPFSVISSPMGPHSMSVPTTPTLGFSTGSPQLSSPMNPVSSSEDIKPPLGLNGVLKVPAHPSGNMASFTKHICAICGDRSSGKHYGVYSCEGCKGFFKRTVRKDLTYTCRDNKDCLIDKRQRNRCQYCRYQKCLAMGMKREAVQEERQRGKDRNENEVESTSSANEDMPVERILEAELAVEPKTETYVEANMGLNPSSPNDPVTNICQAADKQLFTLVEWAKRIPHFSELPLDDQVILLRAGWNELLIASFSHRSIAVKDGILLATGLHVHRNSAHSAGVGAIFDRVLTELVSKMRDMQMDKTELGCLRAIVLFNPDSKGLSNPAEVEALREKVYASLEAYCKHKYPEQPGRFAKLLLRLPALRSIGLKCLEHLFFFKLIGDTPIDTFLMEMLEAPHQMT
# Sequence of RARβ/RXRα heterodimer (P10826 other isoform, or with tags, fused parts or gaps, chain 1 of 2): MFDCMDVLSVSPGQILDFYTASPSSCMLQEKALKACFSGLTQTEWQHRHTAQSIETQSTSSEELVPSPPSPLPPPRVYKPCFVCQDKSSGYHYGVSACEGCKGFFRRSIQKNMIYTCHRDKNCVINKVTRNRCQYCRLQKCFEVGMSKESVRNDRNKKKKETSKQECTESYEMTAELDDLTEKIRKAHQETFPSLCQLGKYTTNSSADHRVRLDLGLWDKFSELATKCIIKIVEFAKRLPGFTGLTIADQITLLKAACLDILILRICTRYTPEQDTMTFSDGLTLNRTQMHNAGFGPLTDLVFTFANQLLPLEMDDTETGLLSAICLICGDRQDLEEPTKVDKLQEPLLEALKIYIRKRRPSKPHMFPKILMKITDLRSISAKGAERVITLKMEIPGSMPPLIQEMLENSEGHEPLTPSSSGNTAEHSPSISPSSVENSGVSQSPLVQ
# Sequence of RARβ/RXRα heterodimer (P19793 whole entry, chain 2 of 2): as the sequence (P19793 whole entry, chain 2 of 2) above
binder,measurement,setting,value
B1,binding result,RARα/RXRα heterodimer,binds
same,binding result,RARβ/RXRα heterodimer,binds
same,binding result,TRβ,binds
same,binding result,RARγ/RXRα heterodimer,binds
same,binding result,TRαm3,binds
same,binding result,RARγ + RXRαm5,no binding
same,binding result,TRα/RXRαm3,binds
same,binding result,RARγ/RXRαm3,binds
same,binding result,[1],binds
same,binding result,[2],binds
same,binding result,TRαm1/RXRα,binds
same,binding result,TRα/RXRα heterodimer,binds
same,binding result,TRα/RXRαm4,binds
